Among the data in US20040053872, “New sequences” (published 2004) are IC50 values, retold here.

Data set [1] addresses T1, HIV-1 RT reference (HIV-1 subtype B (clone BH10), UniProt P03366;P03366 P03366:600-1159,P03366:600-1039). Nature of the data set: inhibition; RNA-dependent DNA polymerisation, preincubated 30 min, 33 C. The settings on record: two stem-loops (D and anticodon).
The target in data set [2] is T1, HIV-1 RT reference. Nature of the data set: competition; BIC50, RT binding to primer; 33 C.
For data set [3], the target named is T1, HIV-1 RT reference. The data set can be described thus: competition; BIC50, RT binding to template/primer; 33 C.
Data set [4] concerns the target T1, HIV-1 RT reference. Nature of the data set: inhibition; second strand DNA synthesis, 33 C.
The target in data set [5] is T1, HIV-1 RT reference. The data set can be described thus: inhibition; RNA-dependent DNA polymerisation, 33 C. The settings on record: hairpin.
Where [6] appears, read: two stem-loops (D and anticodon).

The IC50 is the point on the concentration scale where inhibition reaches its midpoint. A high value points to a need for much substance. For the molecule GCUCAGUCGGUAGAGCAUCAGACUUUUAAUCUGAG (ssRNA) [compound 199], the 50% inhibitory concentration (IC50) came out at 6.6 nM in data set [1], 2 nM in data set [2] (setting [6]), 7 nM in data set [3] (setting [6]) and 40 nM in data set [4] (setting [6]).
CAGACUUUUAAUCUG (ssRNA, PS all linkages) [compound 198 (15-mer anticodon stem-loop)]: the IC50 in data set [5] was found to be 470 nM; in data set [2] (hairpin), 100 nM; in data set [3] (hairpin), 900 nM; in data set [4] (hairpin) it was 550 nM.
